The target in the assay is T1, recombinant form of the extracellular domain of HER2 (amino acids 23-652) (UniProt P04626 23-652).
T1 construct: HER2 (neu/ErbB2), extracellular domain, amino acids 23-652; Bought recombinant protein; also called rHER2; neu; source: bought: e-bioscience, UK
Nature of the assay: SPR; competitive binding: fixed rHER2 concentration incubated 1 h with 5-, 50- and 500-fold excess of Herceptin, flowed over immobilised EPO. The conditions noted are these: both partners purified. On the technique in general: SPR reads the build-up and loss of mass on a sensor chip optically.

B1: Eosinophil Peroxidase (EPO) (enzyme)
chain 1: not shown
chain 2: VDCERTCAQLPPCFPIKIPPNDPRIKNQRDCIPFFRSAPSCPQNKNRVRNQINALTSFVDASMVYGSEVSLSLRLRNRTNYLGLLAINQRFQDNGRALLPFDNLHDDPCLLTNRSARIPCFLAGDTRSTETPKLAAMHTLFMREHNRLATELRRLNPRWNGDKLYNEARKIMGAMVQIITYRDFLPLVLGKARARRTLGHYRGYCSNVDPRVANVFTLAFRFGHTMLQPFMFRLDSQYRASAPNSHVPLSSAFFASWRIVYEGGIDPILRGLMATPAKLNRQDAMLVDELRDRLFRQVRRIGLDLAALNMQRSRDHGLPGYNAWRRFCGLSQPRNLAQLSRVLKNQDLARKFLNLYGTPDNIDIWIGAIAEPLLPGARVGPLLACLFENQFRRARDGDRFWWQKRGVFTKRQRKALSRISLSRIICDNTGITTVSRDIFRANIYPRGFVNCSRIPRLNLSAWRGT
notes: Eosinophil peroxidase, human, light chain of the mature enzyme; Eosinophil peroxidase, human, heavy chain of the mature enzyme; Native granule protein; source: purified from eosinophils of patients with marked eosinophilia (0.01 M HCl extraction, Sephadex G-50)
Regarding B1, the binding result was “binds”.

For the origin of these results see article PMC5070911 (Clinical Immunology (Orlando, Fla.), 2016).
